Test results published in US20160053022A1 (PETER MACCALLUM CANCER INSTITUTE, published 2016).

How the values were obtained:
[1] = molecular target: T1, hRYK.Fc (human, UniProt P34925 26-227); test: ELISA: immobilized RWD1 probed with hRYK.Fc; the concentration on the axis is that of the RWD1 used for immobilization, the hRYK.Fc concentration of this graph is not given
T1 construct: extracellular domain; also called hRYK.Fc.FLAG; FLAG-tagged hRYK.Fc; not shown: Fc
Protocol: Purified RWD1 antibody (20 μg) was used in immunoprecipitation experiments, to determine its ability to inhibit hRYK.Fc binding to Wnt3a.Myc5 or Wnt5a.Myc5 (10 μg and 20 μg, respectively; of transfected HEK293T cell lysate). Immunoprecipitations (IP) were performed to pull down hRYK.Fc (250 ng), then immunoblotted (IB) with an anti-Myc tag antibody to detect Wnt binding. Molecular mass standards are shown at the left in kDa. IgG, normal human IgG. (B) ELISA results of immobilized RWD1 antibody probed with hRYK.Fc protein. […] Results represent the mean±standard deviation of two to three independent experiments. IgG, normal human IgG; OD, optical density.
RYK binding was determined by ELISA as described previously (Davydova N, et al., 2011, J Mol Biol 407: 581-593), using bound RWD1 and probed with purified hRYK.Fc. All SPRi analyses were performed at 25° C. using HBST (10 mM HEPES, pH 7.4, 150 mM NaCl, 0.05% (v/v) Tween-20) as the running buffer. A ProteOn XPR36 SPRi biosensor, GLC sensor chips and coupling reagents (10 mM sodium acetate, pH 4.5; sulfo-N-hydroxysuccinimide (SNHS); 1-ethyl-3-(3-dimethylaminopropyl)-carbodiimide hydrochloride (EDC); and ethanolamine) were purchased from Bio-Rad Laboratories. All antibodies and ligands used for kinetic analysis were buffer exchanged with PBS. Immobilizations were performed at 30 μl/min on the GLC chip. […]

[2] = molecular target: T2, hRYKWD.Fc (human, UniProt P34925 66-194, limits assumed); test: SPRi (ProteOn XPR36, GLC chip), RWD1 immobilized, hRYKWD.Fc injected at 31.25-500 nM, 25 °C; calculated from ka and kd
T2 construct: domain: WIF domain; also called hRYKWD.Fc.FLAG; fusion protein containing the human RYK WIF domain; not shown: Fc region of human IgG1
Protocol: (§1) RYK binding was determined by ELISA as described previously (Davydova N, et al., 2011, J Mol Biol 407: 581-593), using bound RWD1 and probed with purified hRYK.Fc. All SPRi analyses were performed at 25° C. using HBST (10 mM HEPES, pH 7.4, 150 mM NaCl, 0.05% (v/v) Tween-20) as the running buffer. A ProteOn XPR36 SPRi biosensor, GLC sensor chips and coupling reagents (10 mM sodium acetate, pH 4.5; sulfo-N-hydroxysuccinimide (SNHS); 1-ethyl-3-(3-dimethylaminopropyl)-carbodiimide hydrochloride (EDC); and ethanolamine) were purchased from Bio-Rad Laboratories. All antibodies and ligands used for kinetic analysis were buffer exchanged with PBS. Immobilizations were performed at 30 μl/min on the GLC chip. Prior to immobilization, chips were preconditioned with two sequential 10 sec pulses of 50 mM NaOH, 100 mM HCl and 0.5% SDS, followed by equilibration with HBST. For surface activation, 0.4 M EDC and 0.1 M SNHS were each diluted 50-fold in water and mixed together to give a final composition of 8 mM EDC in 2 mM SNHS. Separate vertical channels were activated with 150 μl of the EDC/SNHS mixture. IgGs for immobilization (RWD1 antibody and normal human IgG (R&D Systems; control)) were diluted to 50 μg/ml in 10 mM acetate, pH 4.5, and coupled (3×150 μl) along separate vertical channels followed by an injection of ethanolamine (150 μl) to block the reaction spots. […]

[3] = molecular target: T2, hRYKWD.Fc; test: SPRi (ProteOn XPR36, GLC chip), RWD1 immobilized, hRYKWD.Fc injected at 31.25-500 nM, 25 °C, global 1:1 Langmuir fit with mass transfer
Protocol: as §1

T2 sequence (P34925 66-194 limits assumed): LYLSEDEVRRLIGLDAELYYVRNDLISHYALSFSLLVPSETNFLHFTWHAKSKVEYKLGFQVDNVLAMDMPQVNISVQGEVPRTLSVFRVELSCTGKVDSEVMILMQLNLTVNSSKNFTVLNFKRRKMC
T1 sequence (P34925 26-227): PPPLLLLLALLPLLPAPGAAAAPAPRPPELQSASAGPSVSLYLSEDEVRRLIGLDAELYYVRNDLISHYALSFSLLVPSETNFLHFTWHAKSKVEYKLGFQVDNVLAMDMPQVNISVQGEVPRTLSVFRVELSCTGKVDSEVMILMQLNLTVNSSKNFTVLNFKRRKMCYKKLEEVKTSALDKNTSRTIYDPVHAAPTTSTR

EC50 (read off the curve) [1]: ~5 µg/mL
Kd [2]: 4.2 nM
koff [3]: 0.00037 s⁻¹
kon [3]: 88000 M⁻¹ s⁻¹
B1: RWD1 (antibody, human IgG1, kappa, V domains shown)
VH: EVQLLESGGGLVQPGGSLRLSCAASGFTFSSYAMSWVRQAPGKGLEWVSLIHKAGHTTQYADSVKGRFTISRDNSKNTLYLQMNSLRAEDTAVYYCAKGYRHFDYWGQGTLVTVSS
VL: DIQMTQSPSSLSASVGDRVAITCRASQSISSYLNWYQQKPGKAPKLLIYRASNLQSGVPSRFSGSGSGTDFTLTISSLQPEDFATYYCQQAVGSPRTFGQGTKVEIKR
notes: Variable regions of scFv3 grafted onto a human IgG1 gamma heavy chain and human kappa light chain; fully human monoclonal antibody; also called RWD1 antibody
